Results reported in patent US20060183119A1, “Method for determining predisposition to a physiological reaction in a patient” (UNIVERSITE LAVAL, priority 2002, published 2006).
Residue numbers refer to the chain shown, from its start. In names and notes the source's numbering stands. Values belong to the molecule of their own block, whether it stands above or below them.

Experiments:
human UGT1A9*3 = biological target: T1, human UGT1A9*3 (Homo sapiens, UniProt O60656, M33T); assay: Glucuronidation by microsomes of HEK-293 cells stably expressing UGT1A9*3
T1 sequence (O60656 26-530 M33T): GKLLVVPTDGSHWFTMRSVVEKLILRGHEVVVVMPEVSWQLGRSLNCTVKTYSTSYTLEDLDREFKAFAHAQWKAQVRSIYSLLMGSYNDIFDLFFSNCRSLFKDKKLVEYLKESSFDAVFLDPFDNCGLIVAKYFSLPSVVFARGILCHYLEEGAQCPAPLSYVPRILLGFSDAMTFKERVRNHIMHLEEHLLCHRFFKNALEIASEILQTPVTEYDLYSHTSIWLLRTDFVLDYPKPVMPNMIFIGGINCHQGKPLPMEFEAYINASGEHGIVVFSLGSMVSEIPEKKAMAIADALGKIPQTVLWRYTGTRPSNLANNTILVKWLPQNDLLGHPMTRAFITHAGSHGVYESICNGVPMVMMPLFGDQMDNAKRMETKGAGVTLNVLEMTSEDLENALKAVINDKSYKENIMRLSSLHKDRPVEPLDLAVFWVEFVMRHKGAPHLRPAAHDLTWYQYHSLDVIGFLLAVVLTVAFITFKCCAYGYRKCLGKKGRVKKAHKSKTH
Description: (§1) Microsomal fractions from HEK-293 cells stably expressing human UGT1A9*1, UGT1A9*2 and UGT1A9*3 were used in enzymatic assays. Reactions (100 μl volume) contained 50 mM Tris-HCl, pH 7.3, 10 mM MgCl2, 100 μg/mL phosphatidylcholine, 1 mM UDP-glucuronic acid, 40 to 60 μg of membrane protein. […] Human liver microsome were incubated in the same condition for control. Reaction was stopped by the addition of 200 μL MeOH+1% HCl 2N, followed by centrifugation at 14000 rpm for 10 minutes. Supernatant was filtered through a 0.22 μm filter and 100 μL of water was added. For SN-38 and SN-38-glucuronide detection, 10 μL samples were injected on a liquid chromatographic system coupled to a fluorescence detector. Time-course experiments were realized to determine the linearity of the glucuronidation reaction.
(§2) A liquid chromatographic method was developed to quantify SN-38 glucuronidation of UGT cell line-derived microsomes and human liver microsomes. Samples were analyzed using high performance liquid chromatography (Alliance 2695, Waters, Milford, Mass.). […] At a constant flow rate (0.7 ml/min), a linear gradient from 20 to 65% B was run over 3 min, held 0.8 min and a second gradient until 95% of B was run over 2 min and then re-equilibrated to 20% B over 2 min. The effluent from the HPLC system (Alliance 2695) was connected directly to a fluorescence detector (Waters, Milford, Mass.) using an excitation wavelength of […] and an emission of 460 nm. […] Determination of the glucuronidation rates obtained with other substrates was performed as currently known in the art.
(§3) Microsomal fractions from HEK293 (40 to 60 μg) were added to a reaction mixture (100 μL) containing 50 mM Tris-HCl, pH 7.3, 10 mM MgCl2, 100 μg/mL phosphatidylcholine and 2 mM UDP-glucuronic acid. […] Commercially available human liver microsomes (Human Cell Culture Center Inc., Laurel, Md.) were incubated in the same conditions for all experiments. Time-course experiments were performed to determine the linearity of the glucuronidation reaction. For the determination of Vmax and Km. HEK293 cells stably expressing UGT1A9 enzymes were incubated in the presence of various concentrations of SN-38 ranging from 0.1 to 200 μM and incubated for 30 min as described above whereas UGT1A7 membranes preparations were incubated for 3 hours. […] Reactions with SN-38 were stopped by the addition of 200 μL MeOH+1% HCl 2N, followed by centrifugation at 14000×g for 10 minutes. The supernatants were filtered through a 0.22 μm membrane and 100 μL of water was added to the filtrate. For the detection of SN-38 and its glucuronide (SN-38G), 10 μL samples were injected in a liquid chromatographic system (HPLC) coupled to fluorescence detector as described below.
(§4) A HPLC method was developed to quantify the rates of SN-38 glucuronidation from the various microsomal fractions under study. The HPLC system used was an Alliance 2695 (Waters, Milford, Mass.) equipped with a 50×3.2 mm Colombus C18 column (Phenomenex, Torrance, Calif.). […] Then a second gradient ranging from 65% to 95% solvent B was generated during the following 2 min. Finally, the column was re-equilibrated to 20% solvent B for 2 min. The column was connected to a fluorescence detector model 474 (Waters, Milford, Mass.) and the molecules were excited at a wavelength of 370 nm and an emission of 425 nm.

human UGT1A9*2 = biological target: T2, human UGT1A9*2 (Homo sapiens, UniProt O60656, C3Y); assay: Glucuronidation by microsomes of HEK-293 cells stably expressing UGT1A9*2; conditions: 5 μM and 200 μM of flavopiridol
T2 sequence (O60656 26-530): T1 sequence (O60656 26-530 M33T) with T8M
Description: as §1, §2, §3, §4

[1] = tested on: COc1c(C)c2c(c(O)c1C/C=C(\C)CCC(=O)O)C(=O)OC2; assay: cells, lysate or membranes named; conditions: other: MPA glucuronidation; pH 7.3; 37.0 °C
[2] = substrate: COc1c(C)c2c(c(O)c1C/C=C(\C)CCC(=O)O)C(=O)OC2; assay: cells, lysate or membranes named; conditions: other: MPA glucuronidation; pH 7.3; 37.0 °C; remark: listed apart in the source

formation of flavopiridol-G compared to the UGT1A9*1 allele (human UGT1A9*3; 5 μM and 200 μM of flavopiridol): not statistically different
formation of flavopiridol-G compared to the UGT1A9*1 allele (human UGT1A9*2): not statistically different
Molecule: CN1CC[C@H](c2c(O)cc(O)c3c(=O)cc(-c4ccccc4Cl)oc23)[C@H](O)C1 [Flavopiridol, flavopiridol]

effect of codon 33 variation on affinity of the protein for the substrate (in words) (human UGT1A9*3; versus UGT1A9*1): dramatically reduced
Molecule: COc1c(C)c2c(c(O)c1C/C=C(\C)CCC(=O)O)C(=O)OC2 [MPA, mycophenolic acid]

Molecule: human UGT1A9*2 (Homo sapiens; C3Y)
Km [1]: 303 µM
Vmax [1]: 0.0084 µmol/min/mg

B1: human UGT1A9*1 (Homo sapiens) (protein)
chain: T1 sequence (O60656 26-530 M33T) with T8M
Km [2]: 495 µM
Vmax [2]: 0.00941 µmol/min/mg

B2: human UGT1A9*3 (Homo sapiens; M33T) (protein)
chain: T1 sequence (O60656 26-530 M33T)
Km [2]: 3225 µM
Vmax [2]: 0.0141 µmol/min/mg
